These results are taken from paper PMC5308735, “Inhibition of insulin-like growth factor II (IGF-II)-dependent cell growth by multidentate pentamannosyl 6-phosphate-based ligands targeting the mannose 6-phosphate/IGF-II receptor” (Oncotarget, 2016).

Experiment [1] concerns the target soluble bovine M6P/IGF2R (mannose 6-phosphate/insulin-like growth factor II receptor) (bovine) (UniProt P08169). Description: radioligand binding; competitive displacement of 1.5 nM ^125I-PMP-BSA tracer from soluble bovine M6P/IGF2R coupled to Sepharose 4B; test ligands 1 pM to 10 μM; 50 mM HEPES pH 7.4, 0.15 M NaCl, 0.05% Triton X-100; 16 h at 4°C.
Experiment [2] has the same target.
Experiment [3] deals with recombinant human insulin-like growth factor II (IGF-II). Description: direct radioligand binding (125I-IGF-II) to FLAG-tagged receptor immunoprecipitated on M2 α-FLAG affinity resin. The settings on record: equimolar amounts of expressed soluble receptors from cell lysates; parent: est. 5800; read off a plot.
Experiment [4] deals with T1, full-length ectodomain M6P/IGF2R mini-receptor with R1325A (repeat 9), C-terminal FLAG (human, UniProt P11717 41-2304, R1325A).
T1 construct: human M6P/IGF2R, all 15 ectodomain repeats, arginine-to-alanine substitution in the 9th domain; also called R1325AF; source: HEK 293, transiently transfected; cell lysates and conditioned media, immunoadsorbed to M2 α-FLAG resin; not shown: FLAG, C-terminal, kept
Description: radioligand binding; competitive displacement of 2 nM ^125I-PMP-BSA from FLAG-tagged soluble receptors immunoprecipitated on M2 α-FLAG resin and washed; PMP-ligands 1 pM to 10 μM; assay buffer, 4 h at 4°C. The settings on record: both partners purified.

Experiment [5] addresses T2, wild-type, full-length ectodomain M6P/IGF2R mini-receptor with C-terminal FLAG (1-15F) (human, UniProt P11717 41-2304).
T2 construct: human M6P/IGF2R, all 15 ectodomain repeats; also called wild-type M6P/IGF2R construct; source: HEK 293, transiently transfected; cell lysates and conditioned media, immunoadsorbed to M2 α-FLAG resin; not shown: FLAG, C-terminal, kept
The description is as above. As to conditions: both partners purified.

In experiment [6] the target is T3, soluble bovine M6P/IGF2R (mannose 6-phosphate/insulin-like growth factor II receptor) (bovine, UniProt P08169 45-2313).
T3 construct: soluble form of the bovine mannose 6-phosphate/IGF-II receptor as it circulates in fetal bovine serum; also called sIGF2R; soluble M6P/IGF2R; source: purified from fetal bovine serum; coupled to Sepharose 4B for the displacement assay
T3 sequence (P08169 45-2313): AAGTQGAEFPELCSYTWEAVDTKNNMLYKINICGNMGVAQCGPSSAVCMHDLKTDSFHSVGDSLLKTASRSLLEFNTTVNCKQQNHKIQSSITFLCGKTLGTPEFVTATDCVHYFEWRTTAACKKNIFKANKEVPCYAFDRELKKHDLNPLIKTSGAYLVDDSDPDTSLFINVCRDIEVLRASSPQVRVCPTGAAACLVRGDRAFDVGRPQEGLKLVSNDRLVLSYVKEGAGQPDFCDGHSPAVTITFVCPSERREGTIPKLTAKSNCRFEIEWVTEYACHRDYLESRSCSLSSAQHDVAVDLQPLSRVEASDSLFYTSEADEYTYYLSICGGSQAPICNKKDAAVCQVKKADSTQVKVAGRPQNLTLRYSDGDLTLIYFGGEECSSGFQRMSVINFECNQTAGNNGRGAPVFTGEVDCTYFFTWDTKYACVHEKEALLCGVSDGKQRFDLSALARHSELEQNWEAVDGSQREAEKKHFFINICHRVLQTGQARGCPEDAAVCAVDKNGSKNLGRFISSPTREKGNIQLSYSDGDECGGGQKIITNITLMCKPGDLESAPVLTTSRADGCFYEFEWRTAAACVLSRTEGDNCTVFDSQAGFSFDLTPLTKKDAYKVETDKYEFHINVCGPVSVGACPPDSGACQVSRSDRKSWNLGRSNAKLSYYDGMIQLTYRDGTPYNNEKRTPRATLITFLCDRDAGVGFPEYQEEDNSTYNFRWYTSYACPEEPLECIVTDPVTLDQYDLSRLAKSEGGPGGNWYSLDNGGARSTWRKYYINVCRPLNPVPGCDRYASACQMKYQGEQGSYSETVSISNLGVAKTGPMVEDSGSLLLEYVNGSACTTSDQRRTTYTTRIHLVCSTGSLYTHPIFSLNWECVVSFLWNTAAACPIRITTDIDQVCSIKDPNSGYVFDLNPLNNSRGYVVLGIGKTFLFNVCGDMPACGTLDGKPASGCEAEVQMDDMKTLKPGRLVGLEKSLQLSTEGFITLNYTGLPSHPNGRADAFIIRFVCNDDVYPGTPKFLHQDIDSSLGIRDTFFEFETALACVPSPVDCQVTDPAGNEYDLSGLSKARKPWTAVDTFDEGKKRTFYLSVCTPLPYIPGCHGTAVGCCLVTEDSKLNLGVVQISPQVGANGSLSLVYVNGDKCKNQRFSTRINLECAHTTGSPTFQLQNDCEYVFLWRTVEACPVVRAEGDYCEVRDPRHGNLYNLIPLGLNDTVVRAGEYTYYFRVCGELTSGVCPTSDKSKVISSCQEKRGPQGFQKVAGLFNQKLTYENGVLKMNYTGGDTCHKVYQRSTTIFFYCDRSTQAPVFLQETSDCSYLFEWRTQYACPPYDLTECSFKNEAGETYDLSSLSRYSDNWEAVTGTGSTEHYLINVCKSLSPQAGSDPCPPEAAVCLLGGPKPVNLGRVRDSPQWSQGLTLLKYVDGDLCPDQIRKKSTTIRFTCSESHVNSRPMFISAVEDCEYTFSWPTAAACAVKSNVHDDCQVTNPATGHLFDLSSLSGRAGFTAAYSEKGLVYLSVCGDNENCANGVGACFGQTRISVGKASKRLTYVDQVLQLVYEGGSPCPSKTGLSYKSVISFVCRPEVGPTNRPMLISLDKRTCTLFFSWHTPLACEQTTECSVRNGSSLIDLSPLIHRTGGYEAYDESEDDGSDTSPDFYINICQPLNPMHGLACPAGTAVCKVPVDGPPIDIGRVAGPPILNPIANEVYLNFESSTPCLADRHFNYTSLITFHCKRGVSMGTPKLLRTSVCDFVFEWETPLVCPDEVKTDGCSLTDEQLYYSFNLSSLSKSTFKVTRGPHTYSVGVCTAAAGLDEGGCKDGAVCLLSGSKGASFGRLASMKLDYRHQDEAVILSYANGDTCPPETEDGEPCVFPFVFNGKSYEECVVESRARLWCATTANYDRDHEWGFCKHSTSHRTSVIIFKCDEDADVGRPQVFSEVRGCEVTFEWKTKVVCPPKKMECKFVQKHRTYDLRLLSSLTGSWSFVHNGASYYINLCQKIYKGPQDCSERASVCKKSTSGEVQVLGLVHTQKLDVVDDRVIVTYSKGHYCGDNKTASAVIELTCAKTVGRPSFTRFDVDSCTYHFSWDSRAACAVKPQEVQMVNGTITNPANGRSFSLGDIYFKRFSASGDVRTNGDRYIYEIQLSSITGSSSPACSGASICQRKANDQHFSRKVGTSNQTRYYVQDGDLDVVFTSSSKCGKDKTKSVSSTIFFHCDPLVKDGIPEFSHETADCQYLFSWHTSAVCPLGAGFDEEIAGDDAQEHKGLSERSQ
Description: radioligand binding; competitive displacement of 1.5 nM ^125I-PMP-BSA tracer from soluble bovine M6P/IGF2R coupled to Sepharose 4B; test ligands 1 pM to 10 μM; 50 mM HEPES pH 7.4, 0.15 M NaCl, 0.05% Triton X-100; 16 h at 4°C. The settings on record: both partners purified.

Experiment [7] addresses T1, full-length ectodomain M6P/IGF2R …. Description: radioligand binding; direct binding of ^125I-PMP-BSA or ^125I-hGUS to equimolar FLAG-tagged soluble receptors immunoadsorbed from HEK 293 lysates/conditioned media to M2 α-FLAG resin and washed. The settings on record: both partners purified.
In experiment [8] the target is T4, full-length ectodomain M6P/IGF2R mini-receptor with R426A (repeat 3), C-terminal FLAG (human, UniProt P11717 41-2304, R426A).
T4 construct: human M6P/IGF2R, all 15 ectodomain repeats, arginine-to-alanine substitution in the 3rd domain; also called R426A mutant construct; source: HEK 293, transiently transfected; cell lysates and conditioned media, immunoadsorbed to M2 α-FLAG resin; not shown: FLAG, C-terminal, kept
The experiment is described as above. The settings on record: both partners purified.

Experiment [9] has as its target T2, wild-type, full-length ectodomain …. Described as above. The settings on record: both partners purified.

Broadly, the IC50 is the concentration at which inhibition is half-maximal.

Chain of soluble bovine M6P/IGF2R (mannose 6-phosphate/insulin-like growth factor II receptor) (bovine) (P08169 45-2313): as above

Regarding “pentamannosyl 6-phosphate-derivatized bovine insulin (PMP-INS) (ligand)”, in experiment [1], the IC50 amounted to 13 nM and the RBA (relative binding affinity, normalized to free M6P) stood at 5540.
For “pentamannosyl 6-phosphate-derivatized lysyl-tyrosyl-lysine (PMP-KYK) (peptide)”, in that order: 120 nM and 600.
In experiment [2], “pentamannosyl 6-phosphate-derivatized seryl-tyrosyl-lysine (PMP-SYK) (peptide)” gave a suppression of growth (MTT, 2 days) of mouse L cells over-expressing the M6P/IGF2R, PMP-SYK 1 pM to 1 μM; blocked by saturating M6P of 50%. In experiment [1], this molecule registered an IC50 of 52 nM and an RBA (relative binding affinity, normalized to free M6P) of 1380.
On to “wild-type, full-length ectodomain M6P/IGF2R mini-receptor with C-terminal FLAG (1-15F) (from UniProt P11717) R426A”, for which the response in [3] amounted to 5300 CPM.
Still for that read-out and setting: the result for “wild-type, full-length ectodomain M6P/IGF2R mini-receptor with C-terminal FLAG (1-15F) (from UniProt P11717) R426A; R1325A” reads 5900 CPM; that for “wild-type, full-length ectodomain M6P/IGF2R mini-receptor with C-terminal FLAG (1-15F) (from UniProt P11717) R1325A”, 5000 CPM.

B1: pentamannosyl 6-phosphate-derivatized chicken egg ovalbumin (PMP-OVA) (ligand, UniProt P01012 1-386, looked up)
chain: MGSIGAASMEFCFDVFKELKVHHANENIFYCPIAIMSALAMVYLGAKDSTRTQINKVVRFDKLPGFGDSIEAQCGTSVNVHSSLRDILNQITKPNDVYSFSLASRLYAEERYPILPEYLQCVKELYRGGLEPINFQTAADQARELINSWVESQTNGIIRNVLQPSSVDSQTAMVLVNAIVFKGLWEKAFKDEDTQAMPFRVTEQESKPVQMMYQIGLFRVASMASEKMKILELPFASGTMSMLVLLPDEVSGLEQLESIINFEKLTEWTSSNVMEERKIKVYLPRMKMEEKYNLTSVLMAMGITDVFSSSANLSGISSAESLKISQAVHAAHAEINEAGREVVGSAEAGVDAASVSEEFRADHPFLFCIKHIATNAVLFFGRCVSP
modifications: pentamannosyl 6-phosphate (PMP) coupled by reductive amination, approximately 13 PMP groups
notes: chicken egg white albumin (ovalbumin); source: bought: Sigma (A-5503), conjugated to PMP with NaCNBH3, dialysed and gel filtered (Sephadex G-50)
On to B1, for which the binding result in [4] and in experiment [5] was “binds” in each case. This molecule had an IC50 in [6] of 21 nM.

B2: human β-glucuronidase (hGUS) (enzyme, UniProt P08236 23-651, looked up)
chain: LQGGMLYPQESPSRECKELDGLWSFRADFSDNRRRGFEEQWYRRPLWESGPTVDMPVPSSFNDISQDWRLRHFVGWVWYEREVILPERWTQDLRTRVVLRIGSAHSYAIVWVNGVDTLEHEGGYLPFEADISNLVQVGPLPSRLRITIAINNTLTPTTLPPGTIQYLTDTSKYPKGYFVQNTYFDFFNYAGLQRSVLLYTTPTTYIDDITVTTSVEQDSGLVNYQISVKGSNLFKLEVRLLDAENKVVANGTGTQGQLKVPGVSLWWPYLMHERPAYLYSLEVQLTAQTSLGPVSDFYTLPVGIRTVAVTKSQFLINGKPFYFHGVNKHEDADIRGKGFDWPLLVKDFNLLRWLGANAFRTSHYPYAEEVMQMCDRYGIVVIDECPGVGLALPQFFNNVSLHHHMQVMEEVVRRDKNHPAVVMWSVANEPASHLESAGYYLKMVIAHTKSLDPSRPVTFVSNSNYAADKGAPYVDVICLNSYYSWYHDYGHLELIQLQLATQFENWYKKYQKPIIQSEYGAETIAGFHQDPPLMFTEEYQKSLLEQYHLGLDQKRRKYVVGELIWNFADFMTEQSPTRVLGNKKGIFTRQRQPKSAAFLLRERYWKIANETRYPHSVAKSQCLENSLFT
modifications: multiple high-mannose N-linked oligosaccharides capped with M6P; ^125I-labelled (IODOGEN) where used as tracer
notes: human β-glucuronidase, a homotetrameric lysosomal enzyme; source: purified human β-glucuronidase provided by Dr. William S. Sly
Take B2: the binding result in experiment [7], in experiment [8] and in experiment [9] was “binds” throughout.
